Experiments:
[1] = biological target: T1, H2A.Z N-terminal peptide; experiment: EMSA; peptide 1 uM-10 mM, glutaraldehyde crosslink; details: protein: synthetic; tags: synthetic peptide, AnaSpec; label: 5'-32P; predicted stem-loop
T1 chain: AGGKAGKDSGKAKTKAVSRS
Experimental: (§1) Indeed, mutation of RM9A abolishing the predicted stem-loop structure, did change the strength and the mobility of the RNA-TIP60 complexes (Mut RM9A; FIG. 3E, lane 5).
(§2) RNA oligonucleotides (15 pmol) were end-labeled with [γ-³²P] ATP (Perkin Elmer) and T4 polynucleotide kinase (New England Biolabs). Reactions were incubated at 37° C. for 1 h and then passed through G-25 spin columns (GE Healthcare) according to the manufacturer's instructions to remove unincorporated radioactivity. Labeled samples were gel-purified on 10% polyacrylamide gels. Binding reactions were carried out in 10 μL volumes in the following buffer: 5 mM Tris pH 7.4, 5 mM MgCl₂, 1 mM DTT, 3% v/v glycerol, 100 mM NaCl. 5 μg of full length purified H2A.Z (Abcam) and TIP60 (SignalChem) proteins were incubated with 1.1 nM of ³²P-labeled ss RNAs. All reactions were assembled on ice and then incubated at room temperature for 30 min. Samples were loaded onto 6% native polyacrylamide gels (0.5×TBE) at 4° C. for 3 h at 140 V. Various concentrations (1 μM-10 mM) of H2A.Z and K7 acetylated H2A.Z peptides (AnaSpec) were incubated with a fixed amount of probe in 50 mM Tris-HCl pH 7.5, 100 mM NaCl, 0.4 mM EDTA, and 40 U/ml RNasin, 1 mM DTT, 50% glycerol in a final volume of 10 μL. Thereafter, 1 μl glutaraldehyde (0.2% final concentration) was added into the mixture and incubated at room temperature for 15 minutes. […]

[2] = biological target: T2, TIP60 (KAT5), full length (UniProt Q92993 Q92993:1-513); experiment: EMSA; 5 mM Tris pH 7.4, 5 mM MgCl2, 100 mM NaCl, RT; details: tags: SignalChem; label: 5'-32P; predicted stem-loop
Experimental: as §1, §2

[3] = biological target: T3, Histone H2A.Z, full length (UniProt P0C0S5 P0C0S5:2-128); experiment: as above; details: tags: Abcam; label: 5'-32P; predicted stem-loop
Experimental: as §1, §2

[4] = biological target: T4, acH2A.Z N-terminal peptide (K7 acetylated); experiment: EMSA; K7 acetylation did not abrogate binding; glutaraldehyde crosslink; details: protein: synthetic, tags: synthetic peptide, AnaSpec, label: 5'-32P, predicted stem-loop
T4 chain: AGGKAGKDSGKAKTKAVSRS
Experimental: as §1, §2

[5] = biological target: T2, TIP60 (KAT5), full length; experiment: EMSA; no detectable RNP; details: tags: SignalChem; label: 5'-32P
Experimental: as §1
(§3) RNA oligonucleotides (15 pmol) were end-labeled with [γ-³²P] ATP (Perkin Elmer) and T4 polynucleotide kinase (New England Biolabs). Reactions were incubated at 37° C. for 1 h and then passed through G-25 spin columns (GE Healthcare) according to the manufacturer's instructions to remove unincorporated radioactivity. Labeled samples were gel-purified on 10% polyacrylamide gels. Binding reactions were carried out in 10 μL volumes in the following buffer: 5 mM Tris pH 7.4, 5 mM MgCl₂, 1 mM DTT, 3% v/v glycerol, 100 mM NaCl. 5 μg of full length purified H2A.Z (Abcam) and TIP60 (SignalChem) proteins were incubated with 1.1 nM of ³²P-labeled ss RNAs. All reactions were assembled on ice and then incubated at room temperature for 30 min. Samples were loaded onto 6% native polyacrylamide gels (0.5×TBE) at 4° C. for 3 h at 140 V. Various concentrations (1 μM-10 mM) of H2A.Z and K7 acetylated H2A.Z peptides (AnaSpec) were incubated with a fixed amount of probe in 50 mM Tris-HCl pH 7.5, 100 mM NaCl, 0.4 mM EDTA, and 40 U/ml RNasin, 1 mM DTT, 50% glycerol in a final volume of 10 μL. Thereafter, 1 μl glutaraldehyde (0.2% final concentration) was added into the mixture and incubated at room temperature for 15 minutes. Samples were loaded onto 10% native polyacrylamide gels (0.5×TBE) at 4° C. for 3 h at 170 V. All gels were dried upon fixation with Methanol and Acetic Acid and exposed to X-ray film.

[6] = biological target: T3, Histone H2A.Z, full length; experiment: EMSA; no detectable RNP; details: tags: Abcam; label: 5'-32P
Experimental: as §1, §3

T2 sequence (Q92993 whole entry, one chain of several): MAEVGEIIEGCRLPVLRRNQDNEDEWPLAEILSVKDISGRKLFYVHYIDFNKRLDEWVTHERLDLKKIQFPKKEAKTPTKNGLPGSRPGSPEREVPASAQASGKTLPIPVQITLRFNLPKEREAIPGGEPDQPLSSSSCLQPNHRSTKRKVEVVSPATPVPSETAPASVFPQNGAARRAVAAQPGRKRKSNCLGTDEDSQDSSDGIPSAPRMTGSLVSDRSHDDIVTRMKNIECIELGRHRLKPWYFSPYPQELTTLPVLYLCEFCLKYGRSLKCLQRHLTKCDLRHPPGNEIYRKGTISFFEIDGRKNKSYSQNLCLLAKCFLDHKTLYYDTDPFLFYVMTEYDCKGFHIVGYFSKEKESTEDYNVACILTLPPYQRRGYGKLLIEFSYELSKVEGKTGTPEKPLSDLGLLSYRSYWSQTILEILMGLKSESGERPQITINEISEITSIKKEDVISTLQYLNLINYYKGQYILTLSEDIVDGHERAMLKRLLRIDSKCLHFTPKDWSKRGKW

B1: RM9A (ssRNA)
RNA: GGCGUGGCGGUGGGCGCGCAGU
binding result [1]: binds | binding result [2]: binds | binding result [3]: binds | binding result [4]: binds

B2: UR3 (ssRNA)
RNA: GCCCUUUCCCCAGCCUUAGCGA
binding result [5]: no binding | binding result [6]: no binding

B3: UR1 (ssRNA)
RNA: GCGCCCUGCAGCCUGGUACGCG
binding result [5]: no binding | binding result [6]: no binding

B4: UR2 (ssRNA)
RNA: CUUUCCUCCACUCUCCCUGGGA
binding result [5]: no binding | binding result [6]: no binding
